# Measured values published in patent US20210246451, “APTAMER FOR ADAMTS5 AND USE FOR APTAMER FOR ADAMTS5” (RIBOMIC INC., published 2021).
# Changes are numbered by the printed parent chain.
# B1: SEQ ID NO: 2 (ssRNA)
# RNA: GGGUACGACCGUCGUACGAUUGGGCCUCCACAGCUGCUCAGCUUGGACUAAACCAAUAAGAGACUAACGCCUAGCGUAC
# modifications: 2'-F pyrimidines; 3' A16 tail for SPR
# B2: SEQ ID NO: 1 (ssRNA)
# RNA: GGGUACGACCGUCGUACGAUUGGGGCCUCCACAGCUGCUCAGCUUGGACUAAACCAAUAAGAGACUAACGCCUAGCGUAC
# modifications: 2'-F pyrimidines, 2'-OH purines; 3' A16 tail for SPR
# B3: SEQ ID NO: 22 (ssRNA)
# RNA: GGGACAUGCGUAACUGCAUAGGGGCCUCCACAGCUAUUCAGCUUGGACACAAACCAUGCAGUCCAGAUCGAGCA
# modifications: 2'-F at all pyrimidines
# B4: SEQ ID NO: 23 (ssRNA)
# RNA: B3 RNA with C17U, A36G, U37A, U38A, C39A, A49U, G58A
# modifications: 2'-F at all pyrimidines
# B5: SEQ ID NO: 24 (ssRNA)
# RNA: GGGACAUGCGUAACUUGAUAGGGGCCUCCACAGCCGGUAGGCUUGGACUCAAACCAUCAAGUCCAGAUCGAGCA
# modifications: 2'-F at all pyrimidines
# How the values were obtained:
# ADAMTS5 [1] = target: T1, ADAMTS5 (UniProt Q9UNA0 Q9UNA0:262-622); experiment: SPR; RU ratio <10%, same level as 40N; 300 mM NaCl, Ca, Mg; settings: tags: R&D Systems
# T1 sequence: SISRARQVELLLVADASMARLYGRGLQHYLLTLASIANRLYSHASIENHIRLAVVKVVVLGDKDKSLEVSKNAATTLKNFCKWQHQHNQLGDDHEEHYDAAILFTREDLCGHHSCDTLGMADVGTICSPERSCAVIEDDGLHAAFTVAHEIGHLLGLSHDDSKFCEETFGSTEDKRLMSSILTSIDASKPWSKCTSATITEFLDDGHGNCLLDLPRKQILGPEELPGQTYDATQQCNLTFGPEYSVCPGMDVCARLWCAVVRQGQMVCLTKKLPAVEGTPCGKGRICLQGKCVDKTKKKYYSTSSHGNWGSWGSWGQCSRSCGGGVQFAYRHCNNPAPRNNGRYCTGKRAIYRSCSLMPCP
# Method: The binding activity of aptamers having the nucleotide sequences shown in SEQ ID NOs: 1 and 2 to ADAMTS5 was evaluated by the surface plasmon resonance method. Biacore T100 manufactured by GE Healthcare was used for the measurement. The SA chip was used as the sensor chip, which had streptavidin immobilized thereon. About 800 RU of a 16-nucleotide Poly dT with biotin at the 5′-terminal was bound on the chip. […] ADAMTS5 for analyte was prepared at 0.1 μM, and injected at a flow rate so of 30 μL/min for 60 sec. As the running buffer, solution C was used. The solution C is a mixed solution of 300 mM sodium chloride, 5.4 mM potassium chloride, 1.8 mM calcium chloride, 0.8 mM magnesium chloride, 20 mM tris (pH 7.6), and 0.05% Tween20.
# SEQ ID NO: 2 has a sequence with one base deletion from the continuous 4 G bases in the consensus sequence, and it was shown from the measurement results of the binding activity that the continuous 4 G bases in the consensus sequence are important for the activity of aptamers. Sensorgram showing the binding of an aptamer having the nucleotide sequence shown in SEQ ID NO: 1 to ADAMTS5 is presented in FIG. 2. […]
# ADAMTS5 [2] = target: T1, ADAMTS5; experiment: inhibition; 5 nM ADAMTS5, aggrecan G1-IGD-G2 cleavage, 145 mM NaCl, Ca, Mg, 37 C; settings: tags: R&D Systems; stem-internal loop-stem-loop (MFOLD)
# Method: (§1) Whether an aptamer having the nucleotide sequence shown in SEQ ID NO: 1 inhibits the enzyme activity of ADAMTS5 was evaluated by the following method. As a substrate of ADAMTS5, the G1-IGD-G2 domain of aggrecan (manufactured by R&D systems) was used. ADAMTS5 specifically cleaves in between the 392nd glutamic acid and the 393rd alanine in the G1-IGD-G2 domain and produces two fragments. These fragments have faster electrophoretic mobility than uncleaved G1-IGD-G2. Thus, the enzyme activity of ADAMTS5 can be measured by quantifying the band intensity of G1-IGD-G2 by SDS-PAGE electrophoresis. The assay was performed in a solution A buffer with a reaction mixture volume of 10 μL. First, a mixture (10 μL) of a nucleic acid and ADAMTS5 was prepared and incubated at 25° C. for 15 min. To a substrate solution (5 μL) diluted with solution A was added a mixture (5 μL) of the nucleic acid and ADAMTS5 to start the enzyme reaction. […] The staining was performed according to the manual of Sigma-Aldrich and detected using STORM840 manufactured by GE Healthcare. […] The amount of uncleaved substrate in each reaction solution was quantified from the band intensity and the standard curve. […] The inhibition rate of the test substance was calculated using the following equation.
# The concentration of an inhibitor necessary for inhibiting 50% of the enzyme activity (IC₅₀) was determined. […]
# ADAMTS5 [3] = target: T1, ADAMTS5; experiment: inhibition; SDS-PAGE aggrecan cleavage, 5 nM enzyme; settings: tags: R&D Systems
# Method: as §1, with “reaction. The final concentration of ADAMTS5 in the reaction solution was 5 nM, and the final substrate concentration was 50 μg/mL.” for “reaction.”, “equation. […]” for “equation.”
# ADAMTS5 [4] = target: T1, ADAMTS5; experiment: inhibition; SDS-PAGE aggrecan cleavage; 81% inhibition in Table 9 method 1; settings: tags: R&D Systems
# Method: as §1, with “As” for “Whether an aptamer having the nucleotide sequence shown in SEQ ID NO: 1 inhibits the enzyme activity of ADAMTS5 was evaluated by the following method. As”, “min.” for “min. To a substrate solution (5 μL) diluted with solution A was added a mixture (5 μL) of the nucleic acid and ADAMTS5 to start the enzyme reaction.”
# The aptamer having the sequence shown in SEQ ID NO: 26 was prepared by transcription by T7RNA polymerase, and the aptamers having the sequences shown in SEQ ID NOs: 27-29 were prepared by chemical synthesis. Whether these aptamers inhibit the enzyme activity of ADAMTS5 was evaluated by a method similar to that in Example 1. In the Table, “n.d.” means not determined.
# ADAMTS5 [5] = target: T1, ADAMTS5; experiment: inhibition; method 2 ELISA, 0.2 nM enzyme; method 1 77.5%; settings: tags: R&D Systems
# Method: (§2) The substrate cleavage efficiency of ADAMTS5 under these reaction conditions was 80-100%. The inhibition rate of the test substance was calculated using the following equation.
# (§3) On the other hand, the aptamers having the sequences shown by the sequences of SEQ ID NOs: 11(34)-11(35) and SEQ ID NO: 15 were evaluated by the following method (evaluation method 2). The cleavage reaction of the substrate (aggrecan G1-IGD-G2) by ADAMTS5 was performed in the same manner as in Example 1 except the following points. The differences are that the final concentrations of ADAMTS5 and the substrate were respectively 0.2 nM and 400 nM (48 μg/mL), and that the enzyme reaction time was 30 min. […] The cleaved substrate was quantified by a sandwich ELISA method using two kinds of anti-aggrecan antibodies. […] Using this, the amount of cleaved substrate can be quantified. […] The inhibition rate of the test substance was calculated using the following equation.
# (§4) The aptamers having the sequences shown in SEQ ID NOs: 28(l)-28(18) (SEQ ID NO: 28 lineage) and SEQ ID NOs: 29(1)-29(3) (SEQ ID NO: 29 lineage) were all produced by chemical synthesis. Whether these aptamers inhibit the enzyme activity of ADAMTS5 was evaluated by a method similar to that in Example 1 and Example 5. In the Table, “n.d.” means not determined. […] “n.d.” means not determined.
# ADAMTS5 [6] = target: T1, ADAMTS5; experiment: inhibition; method 2 ELISA; 98.1% at 2 nM; settings: tags: R&D Systems
# Method: as §2, §3, §4
# ADAMTS5 [7] = target: T1, ADAMTS5; experiment: inhibition; 30 nM; settings: tags: R&D Systems
# Method: (§5) Whether an aptamer having the nucleotide sequence shown in SEQ ID NO: 1 inhibits the enzyme activity of ADAMTS5 was evaluated by the following method. As a substrate of ADAMTS5, the G1-IGD-G2 domain of aggrecan (manufactured by R&D systems) was used. ADAMTS5 specifically cleaves in between the 392nd glutamic acid and the 393rd alanine in the G1-IGD-G2 domain and produces two fragments. These fragments have faster electrophoretic mobility than uncleaved G1-IGD-G2. Thus, the enzyme activity of ADAMTS5 can be measured by quantifying the band intensity of G1-IGD-G2 by SDS-PAGE electrophoresis. The assay was performed in a solution A buffer with a reaction mixture volume of 10 μL. First, a mixture (10 μL) of a nucleic acid and ADAMTS5 was prepared and incubated at 25° C. for 15 min. To a substrate solution (5 μL) diluted with solution A was added a mixture (5 μL) of the nucleic acid and ADAMTS5 to start the enzyme reaction. The final concentration of ADAMTS5 in the reaction solution was 5 nM, and the final substrate concentration was 50 μg/mL. The reaction solution was incubated at 37° C. for 2 hr, 2 μL of solution D was added, and the mixture was heated at 95° C. for 2 min to stop the enzyme reaction of ADAMTS5. Solution D contains 0.25 M tris (pH 6.8), 10% SDS, 50% glycerol, 0.25% bromo phenolblue, and 20% 2-mercaptoethanol. The heat-treated reaction solution was electrophoresed by 7.5% SDS-PAGE and stained with SYPRO Orange (manufactured by Sigma-Aldrich). The staining was performed according to the manual of Sigma-Aldrich and detected using STORM840 manufactured by GE Healthcare. […] The amount of uncleaved substrate in each reaction solution was quantified from the band intensity and the standard curve. The substrate cleavage efficiency of ADAMTS5 under these reaction conditions was 80-100%. The inhibition rate of the test substance was calculated using the following equation.
# The nucleic acids shown in SEQ ID NOs: 3(1)-3(16) were all produced by chemical synthesis. Whether these nucleic acids inhibit the enzyme activity of ADAMTS5 was determined by a method similar to that in Example 1.
# ADAMTS5 [8] = target: T1, ADAMTS5; experiment: inhibition; 10 nM; settings: tags: R&D Systems
# Method: as §5, with “The substrate cleavage efficiency of ADAMTS5 under these reaction conditions was 80-100%.” left out
# The nucleic acids of SEQ ID NOs: 10-12 were all produced by chemical synthesis. Whether aptamers having the nucleotide sequences shown by these nucleic acids inhibit the enzyme activity of ADAMTS5 was determined by a method similar to that in Example 1.
# ADAMTS5 [9] = target: T1, ADAMTS5; experiment: inhibition; 10 nM aptamer; settings: tags: R&D Systems
# Method: as §5, with “The substrate cleavage efficiency of ADAMTS5 under these reaction conditions was 80-100%.” left out
# The binding activity and enzyme inhibitory activity of aptamers having nucleotide sequences shown in SEQ ID NOs: 16-25 to ADAMTS5 were measured. The binding activity was evaluated by the surface plasmon resonance method. […]
binder,measurement,setting,value
B1,binding result,ADAMTS5 [1],no binding
B2,IC50,ADAMTS5 [2],16.8 nM
"UAUAGGGGCCUCCACAGCGUAAGCUUGGACUUAAACCAUA (ssRNA, 2'-OMe at 1-3,5,6,16-19,23-27,34-40; 2'-F other pyrimidines) [SEQ ID NO: 27]",IC50,ADAMTS5 [3],5.9 nM
"CGUAGGGGCCUCCACAGCGUAAGCUUGGACUUAAACCACG (ssRNA, 2'-OMe at 1-3,5,6,16-19,23-27,34-40; 2'-F other pyrimidines) [SEQ ID NO: 28]",IC50,ADAMTS5 [4],3.4 nM
"CGUAGGGGCCUCCACAGCGUAAGCUUGGACUUAAACCACG (ssRNA, as SEQ 28 plus 2'-OMe at U31) [28(3)]",IC50,ADAMTS5 [5],0.108 nM
"CGUAGGGGCCUCCACAGCGUAAGCUUGGACUUAAACCACG (ssRNA, as SEQ 28 plus 2'-OMe at 20-22,31; 3' idT) [28(15)]",IC50,ADAMTS5 [6],0.084 nM
"GGAUUGGGGCCUCCACAGCUGCUCAGCUUGGACUAAACCAAUCC (ssRNA, 2'-OMe at 1-3,42-44; 2'-F other pyrimidines) [3(1)]",activity,ADAMTS5 [7],49.8 % inhibition
"GGAUUGGGGCCUCCACAGCUGCUCAGCUUGGACUAAACCAAUCC (ssRNA, 2'-OMe at 4-6,39-41; 2'-F other pyrimidines) [3(2)]",activity,ADAMTS5 [7],53.6 % inhibition
"GGAUUGGGGCCUCCACAGCUGCUCAGCUUGGACUAAACCAAUCC (ssRNA, 2'-OMe at 18-20,25-27; 2'-F other pyrimidines) [3(3)]",activity,ADAMTS5 [7],48.6 % inhibition
"GGAUUGGGGCCUCCACAGCUGCUCAGCUUGGACUAAACCAAUCC (ssRNA, 2'-OMe at A36; 2'-F pyrimidines) [3(4)]",activity,ADAMTS5 [7],53.1 % inhibition
"AUUGGGGCCUCCACAGCUGCUCAGCUUGGACUAAACCAAU (ssRNA, 2'-OMe at 1-5,15-26,28,34-40; 2'-F other pyrimidines) [SEQ ID NO: 10]",activity,ADAMTS5 [8],65 % inhibition
"AUUGGGGCCUCCACAGCGCUCGCUUGGACUAAACCAAU (ssRNA, 2'-OMe at 1-5,15-24,26,32-38; 2'-F other pyrimidines) [SEQ ID NO: 11]",activity,ADAMTS5 [8],59.8 % inhibition
"UUGGGGCCUCCACAGCGCUCGCUUGGACUAAACCAA (ssRNA, 2'-OMe at 1-4,14-23,25,31-36; 2'-F other pyrimidines) [SEQ ID NO: 12]",activity,ADAMTS5 [8],71.1 % inhibition
B3,activity,ADAMTS5 [9],14.8 % inhibition
B4,activity,ADAMTS5 [9],14.5 % inhibition
B5,activity,ADAMTS5 [9],20.2 % inhibition
